As a reminder, the stoichiometry N is a count of units in the complex or per binding partner. One may read the Kd as the concentration at which binding is half-saturated. A higher Kd goes with a looser complex.

We go through four molecules from paper PMC3401450 (Nucleic Acids Research, 2012).

In data set [1] the target is Full-length Dreb2a fused to His-tag and GB1-tag (GB1-Dreb2a f.l.) (A. thaliana) (UniProt O82132). As to the kind of experiment: cross-linking.
The target of data set [2] is T1, Dreb2a 168-335 (binding domain and activation domain of Dreb2a) (A. thaliana, UniProt O82132 168-335).
T1 sequence (looked up): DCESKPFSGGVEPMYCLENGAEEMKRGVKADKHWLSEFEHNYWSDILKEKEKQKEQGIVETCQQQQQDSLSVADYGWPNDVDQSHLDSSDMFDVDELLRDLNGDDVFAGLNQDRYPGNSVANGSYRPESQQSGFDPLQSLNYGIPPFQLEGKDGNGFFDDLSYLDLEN
As to the kind of experiment: SPR. For orientation: Surface plasmon resonance follows binding to a sensor surface in real time, without labels.

The target of data set [3] is T2, Full-length Dreb2a fused to His-tag and GB1-tag (GB1-Dreb2a f.l.) (A. thaliana, UniProt O82132 1-335). Put plainly: SPR.
Data set [4] deals with T2, Full-length Dreb2a fused to His-tag and …. Put plainly: cross-linking.
The next data set deals with Dreb2a f.l. (GB1 fusion) (Arabidopsis thaliana, UniProt O82132 1-335). As to the kind of experiment: EMSA.
Data set [5] addresses Dreb2a f.l. (GB1 fusion);Med25 551-680 (ACID domain) (Arabidopsis thaliana;Arabidopsis …, UniProt O82132;Q7XYY2 1-335;551-680, |). As to the kind of experiment: EMSA supershift. On the technique in general: A gel shift assay detects complexes by their altered migration in electrophoresis.

Several values for one entry are separate records, joined by “and”; a condition that tells them apart may be missing. Identical values can stand only once.

In the case of “Med25 551-680-GST (GST-tagged ACID domain of Arabidopsis thaliana Med25) (from UniProt Q7XYY2 551-680) (domain or fragment)”, the stoichiometry N in data set [1] is 1 and 2.

B1: Med25 551-680 (ACID domain of the Med25 mediator subunit from Arabidopsis thaliana), GST-tag removed (domain or fragment, A. thaliana, UniProt Q7XYY2 551-680, looked up)
chain: TSQSKYVKVWEGNLSGQRQGQPVLITRLEGYRSASASDSLAANWPPTMQIVRLISQDHMNNKQYVGKADFLVFRAMSQHGFLGQLQDKKLCAVIQLPSQTLLLSVSDKACRLIGMLFPGDMVVFKPQIPN
For B1, the values for the Kd in data set [2] and in data set [3] were ~1000 nM and ~100 nM, respectively. Besides, in data set [4], the “stoichiometry N” value turned out to be 2.

B2: 29-nt rd29A mutated DRE mut-probe (dsDNA)
DNA 1: AAAGATATACTACTTTTATGAGTTCCAAA
DNA 2: TTTGGAACTCATAAAAGTAGTATATCTTT
On to B2, for which, in the data set with Dreb2a f.l. (GB1 fusion), the binding result is on record as “no binding”.

B3: 29-nt rd29A DRE Wt-probe (dsDNA)
DNA 1: AAAGATATACTACCGACATGAGTTCCAAA
DNA 2: TTTGGAACTCATGTCGGTAGTATATCTTT
Consider B3, for which the binding result (in the data set with Dreb2a f.l. (GB1 fusion); in data set [5]) was “binds” each time.
